Results taken from patent US20240327535A1 (EISAI R AND D MANAGEMENT, published 2024).

T1: human BCMA on NCI-H929, OPM2 and Raji cells (human, UniProt Q02223 1-184)
T1 construct: endogenous BCMA of human cell lines; also called TNFRSF17; CD269
T1 chain: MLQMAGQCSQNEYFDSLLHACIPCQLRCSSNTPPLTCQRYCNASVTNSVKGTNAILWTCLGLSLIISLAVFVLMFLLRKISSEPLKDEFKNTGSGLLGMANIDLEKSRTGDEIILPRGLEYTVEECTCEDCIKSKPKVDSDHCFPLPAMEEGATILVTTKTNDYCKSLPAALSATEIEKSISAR

T2: extracellular domain of human BCMA (human, UniProt Q02223 1-54)
T2 construct: amine-linked to Octet AR2G tips; also called hsBCMA; BCMA (human)
T2 sequence: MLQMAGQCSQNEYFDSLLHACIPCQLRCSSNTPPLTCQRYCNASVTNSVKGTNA


Experiments:
[1] = target: T1, human BCMA on NCI-H929, OPM2 and Raji …; test: flow cytometry, NCI-H929 cells
[2] = target: T1, human BCMA on NCI-H929, OPM2 and Raji …; test: flow cytometry on NCI-H929 cells (BCMA high), fluorescent anti-human IgG1 secondary antibody, MFI against test article concentration
[3] = target: T3, extracellular domain of rhesus monkey BCMA (rhesus monkey, UniProt F7FFA0 1-53); test: Octet BLI; Fab 200 nM
T3 construct: extracellular domain; also called RhBCMA
T3 sequence (F7FFA0 entry or part of it): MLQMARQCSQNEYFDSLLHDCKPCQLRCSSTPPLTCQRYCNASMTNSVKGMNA

[4] = target: T2, extracellular domain of human BCMA; test: Octet BLI; Fab 200 nM
[5] = target: T1, human BCMA on NCI-H929, OPM2 and Raji …; test: cell-based or functional assay

Binder	Kd [3]	Kd [4]	also measured
AB212-ADL1-D2-02 (antibody, human IgG1, kappa, V domains shown, ADL1-D2 linker-payload on cysteine residues of the antibody, DAR 5.17) VH: QVQLVQSGAEVKKPGSSVKVSCKASGGTFSNYWIHWVRQAPGQGLEWMGGTYRSHSDTNYNQKFKSRVTITADKSTSTAYMELSSLRSEDTAVYYCARGAIYHGYDVIENWGQGTLVTVSS VL: DIQMTQSPSSLSASVGDRVTITCRASQSISSYLNWYQQKPGKAPKLLIYATSNLQIGVPSRFSGSGSGTDFTLTISSLQPEDFATYYCQQFRRLPWTFGQGTKLEIKR	–	–	Kd [1]: 0.0013 µM
AB200-ADL1-D12-05 (antibody, human IgG1, kappa, V domains shown, ADL1-D12 linker-payload on cysteine residues of the antibody, DAR 4.24, antibody-drug conjugate) VH: QVQLVQSGAEVKKPGSSVKVSCKASGGTFSNYWMHWVRQAPGQGLEWMGATYRGHSDTYYNQKFKGRVTITADKSTSTAYMELSSLRSEDTAVYYCARGAIYDGYDVLDNWGQGTLVTVSS VL: DIQMTQSPSSLSASVGDRVTITCSASQDISNYLNWYQQKPGKAPKLLIYYTSNLHSGVPSRFSGSGSGTDFTLTISSLQPEDFATYYCQQYRKLPWTFGQGTKLEIKR	–	–	EC50 (read off the curve) [2]: ~0.009 µM; Kd [1]: 0.0097 µM
AB200-(2Vk44)_R2-VH-v28 (Fab, V domains shown) VH: QVQLVQSGAEVKKPGSSVKVSCKASGGTFSNYWIHWVRQAPGQGLEWMGATYRSHSTTYYNQKYKSRVTITADKSTSTAYMELSSLRSEDTAVYYCARGAIYHGFDVIDNWGQGTLVTVSS VL: DIQMTQSPSSLSASVGDRVTITCRASQSISSYINWYQQKPGKAPKLLIYATSNLQIGVPSRFSGSGSGTDFTLTISSLQPEDFATYYCQQYRRLPWSFGQGTKLEIKR	0.0209 µM	0.0109 µM	–
AB218-ADL1-D2-02 (antibody, human IgG1, kappa, V domains shown, ADL1-D2 linker-payload on cysteine residues of the antibody, DAR 3.77) VH: QVQLVQSGAEVKKPGSSVKVSCKASGGTFSNYWIHWVRQAPGQGLEWMGATYRSQSTTYYNQKFKSRVTITADKSTSTAYMELSSLRSEDTAVYYCARGAVYHGYDVIDNWGQGTLVTVSS VL: DIQMTQSPSSLSASVGDRVTITCRASQSISSYLNWYQQKPGKAPKLLIYATSNLQIGVPSRFSGSGSGTDFTLTISSLQPEDFATYYCQQFRRLPWTFGQGTKLEIKR	–	–	GI50 (nM) OPM2.1, cell viability [5]: 0.985 nM; LD50 (nM) OPM2.1, cell viability [5]: 19.8 nM; Kd [1]: 0.000333 µM
AB200-(2Vk44)_R2-VH-v61 (Fab, V domains shown) VH: QVQLVQSGAEVKKPGSSVKVSCKASGGTFSNYWIHWVRQAPGQGLEWMGGTYRIHSDTYYNQKYKSRVTITADKSTSTAYMELSSLRSEDTAVYYCARGAIYHGYDVIENWGQGTLVTVSS VL: DIQMTQSPSSLSASVGDRVTITCRASQSISSYINWYQQKPGKAPKLLIYATSNLQIGVPSRFSGSGSGTDFTLTISSLQPEDFATYYCQQYRRLPWSFGQGTKLEIKR	0.0596 µM	0.0192 µM	–
AB200-(2Vk44)_R2-VH-v41 (Fab, V domains shown) VH: QVQLVQSGAEVKKPGSSVKVSCKASGGTFTNYWIHWVRQAPGQGLEWMGGTYRIHSDTYYNEKFKSRVTITADKSTSTAYMELSSLRSEDTAVYYCARGAIYHGFDVIDNWGQGTLVTVSS VL: DIQMTQSPSSLSASVGDRVTITCRASQSISSYINWYQQKPGKAPKLLIYATSNLQIGVPSRFSGSGSGTDFTLTISSLQPEDFATYYCQQYRRLPWSFGQGTKLEIKR	0.0126 µM	0.00373 µM	–
AB200-(2Vk44)_R2-VH-v44 (Fab, V domains shown) VH: QVQLVQSGAEVKKPGSSVKVSCKASGGTFTNYWIHWVRQAPGQGLEWMGATYRIHSDTNYAQKFKSRVTITADKSTSTAYMELSSLRSEDTAVYYCARGAIYHGYDVIENWGQGTLVTVSS VL: DIQMTQSPSSLSASVGDRVTITCRASQSISSYINWYQQKPGKAPKLLIYATSNLQIGVPSRFSGSGSGTDFTLTISSLQPEDFATYYCQQYRRLPWSFGQGTKLEIKR	0.29 µM	0.0864 µM	–
AB200-(2Vk44)_R2-VH-v60 (Fab, V domains shown) VH: QVQLVQSGAEVKKPGSSVKVSCKASGGTFSNYWIHWVRQAPGQGLEWMGGTYRIQSDTYYNQKFKSRVTITADKSTSTAYMELSSLRSEDTAVYYCARGAIYHGYDVIENWGQGTLVTVSS VL: DIQMTQSPSSLSASVGDRVTITCRASQSISSYINWYQQKPGKAPKLLIYATSNLQIGVPSRFSGSGSGTDFTLTISSLQPEDFATYYCQQYRRLPWSFGQGTKLEIKR	0.0386 µM	0.0111 µM	–
AB200-(2Vk44)_R2-VH-v64 (Fab, V domains shown) VH: QVQLVQSGAEVKKPGSSVKVSCKASGGTFSNYWIHWVRQAPGQGLEWMGATYRIHSTTYYAQKFKSRVTITADKSTSTAYMELSSLRSEDTAVYYCARGAIYHGFDVIDNWGQGTLVTVSS VL: DIQMTQSPSSLSASVGDRVTITCRASQSISSYINWYQQKPGKAPKLLIYATSNLQIGVPSRFSGSGSGTDFTLTISSLQPEDFATYYCQQYRRLPWSFGQGTKLEIKR	0.0365 µM	0.0221 µM	–
AB200-(2Vk44)_R2-VH-v54 (Fab, V domains shown) VH: QVQLVQSGAEVKKPGSSVKVSCKASGGSFSNYWIHWVRQAPGQGLEWMGATYRIHSDTNYNEKFKSRVTITADKSTSTAYMELSSLRSEDTAVYYCARGAIYHGYDVIENWGQGTLVTVSS VL: DIQMTQSPSSLSASVGDRVTITCRASQSISSYINWYQQKPGKAPKLLIYATSNLQIGVPSRFSGSGSGTDFTLTISSLQPEDFATYYCQQYRRLPWSFGQGTKLEIKR	0.151 µM	0.0688 µM	–
AB200-(2Vk44)_R2-VH-v35 (Fab, V domains shown) VH: QVQLVQSGAEVKKPGSSVKVSCKASGGTFSNYWIHWVRQAPGQGLEWMGATYRSHSDTYYAQKYKSRVTITADKSTSTAYMELSSLRSEDTAVYYCARGAIYHGYDVIENWGQGTLVTVSS VL: DIQMTQSPSSLSASVGDRVTITCRASQSISSYINWYQQKPGKAPKLLIYATSNLQIGVPSRFSGSGSGTDFTLTISSLQPEDFATYYCQQYRRLPWSFGQGTKLEIKR	0.0528 µM	0.0162 µM	–
AB200-(2Vk44)_R2-VH-v68 (Fab, V domains shown) VH: QVQLVQSGAEVKKPGSSVKVSCKASGGTFSNYWIHWVRQAPGQGLEWMGATYRIHSDTNYAQKFKSRVTITADESTSTAYMELSSLRSEDTAVYYCARGAIYHGFDVIDNWGQGTLVTVSS VL: DIQMTQSPSSLSASVGDRVTITCRASQSISSYINWYQQKPGKAPKLLIYATSNLQIGVPSRFSGSGSGTDFTLTISSLQPEDFATYYCQQYRRLPWSFGQGTKLEIKR	0.11 µM	0.0603 µM	–
AB200-(2Vk44)_R2-VH-v70 (Fab, V domains shown) VH: QVQLVQSGAEVKKPGSSVKVSCKASGGTFSNYWIHWVRQAPGQGLEWMGATYRIHSDTNYNQKYKSRVTITADKSTSTAYMELSSLRSEDTAVYYCARGAVYHGYDVIDNWGQGTLVTVSS VL: DIQMTQSPSSLSASVGDRVTITCRASQSISSYINWYQQKPGKAPKLLIYATSNLQIGVPSRFSGSGSGTDFTLTISSLQPEDFATYYCQQYRRLPWSFGQGTKLEIKR	0.0358 µM	0.0124 µM	–
AB200-(2Vk44)_R2-VH-v58 (Fab, V domains shown) VH: QVQLVQSGAEVKKPGSSVKVSCKASGGTFSNYWIHWVRQAPGQGLEWMGGTYRIHSDTNYNQKFKSRVTITADKSTSTAYMELSSLRSEDTAVYYCARGAIYHGFDVIDNWGQGTLVTVSS VL: DIQMTQSPSSLSASVGDRVTITCRASQSISSYINWYQQKPGKAPKLLIYATSNLQIGVPSRFSGSGSGTDFTLTISSLQPEDFATYYCQQYRRLPWSFGQGTKLEIKR	0.0526 µM	0.0272 µM	–
AB200-(2Vk44)_R2-VH-v24 (Fab, V domains shown) VH: QVQLVQSGAEVKKPGSSVKVSCKASGGTFSNYWIHWVRQAPGQGLEWMGGTYRSHSDTYYNEKFKSRVTITADKSTSTAYMELSSLRSEDTAVYYCARGAIFHGYDVIDNWGQGTLVTVSS VL: DIQMTQSPSSLSASVGDRVTITCRASQSISSYINWYQQKPGKAPKLLIYATSNLQIGVPSRFSGSGSGTDFTLTISSLQPEDFATYYCQQYRRLPWSFGQGTKLEIKR	0.0208 µM	0.00644 µM	–
AB200-(2Vk44)_R2-VH-v72 (Fab, V domains shown) VH: QVQLVQSGAEVKKPGSSVKVSCKASGGTFSNYWIHWVRQAPGQGLEWMGATYRIQSDTYYAQKFKSRVTITADKSTSTAYMELSSLRSEDTAVYYCARGAVYHGYDVIDNWGQGTLVTVSS VL: DIQMTQSPSSLSASVGDRVTITCRASQSISSYINWYQQKPGKAPKLLIYATSNLQIGVPSRFSGSGSGTDFTLTISSLQPEDFATYYCQQYRRLPWSFGQGTKLEIKR	0.0124 µM	0.00216 µM	–
AB200-(2Vk44)_R2-VH-v53 (Fab, V domains shown) VH: QVQLVQSGAEVKKPGSSVKVSCKASGGSFSNYWIHWVRQAPGQGLEWMGATYRIHSDTNYNQKYKSRVTITADKSTSTAYMELSSLRSEDTAVYYCARGAIFHGYDVIDNWGQGTLVTVSS VL: DIQMTQSPSSLSASVGDRVTITCRASQSISSYINWYQQKPGKAPKLLIYATSNLQIGVPSRFSGSGSGTDFTLTISSLQPEDFATYYCQQYRRLPWSFGQGTKLEIKR	0.103 µM	0.0525 µM	–
AB200-(2Vk44)_R2-VH-v22 (Fab, V domains shown) VH: QVQLVQSGAEVKKPGSSVKVSCKASGGTFSNYWIHWVRQAPGQGLEWMGGTYRSQSDTYYNQKFKSRVTITADKSTSTAYMELSSLRSEDTAVYYCARGAVYHGYDVIDNWGQGTLVTVSS VL: DIQMTQSPSSLSASVGDRVTITCRASQSISSYINWYQQKPGKAPKLLIYATSNLQIGVPSRFSGSGSGTDFTLTISSLQPEDFATYYCQQYRRLPWSFGQGTKLEIKR	0.0111 µM	0.00231 µM	–
AB213-ADL1-D2-02 (antibody, human IgG1, kappa, V domains shown, ADL1-D2 linker-payload on cysteine residues of the antibody, DAR 4.18) VH: QVQLVQSGAEVKKPGSSVKVSCKASGGTFTNYWIHWVRQAPGQGLEWMGGTYRSHSTTYYNQKFKSRVTITADKSTSTAYMELSSLRSEDTAVYYCARGAVYHGYDVIDNWGQGTLVTVSS VL: DIQMTQSPSSLSASVGDRVTITCRASQSISSYLNWYQQKPGKAPKLLIYATSNLQIGVPSRFSGSGSGTDFTLTISSLQPEDFATYYCQQFRRLPWTFGQGTKLEIKR	–	–	EC50 (read off the curve) [2]: ~0.0006 µM; Kd [1]: 0.0005 µM
